Data as given in article PMC11405016.

Biological target: Prominin 1 (Prom1) W795R, human S1 isoform, C-terminally Strep-tagged (human)
Test: co-IP; EVs from co-transfected Expi293 cells, purified and solubilised with 1% DDM (25 mM HEPES-NaOH pH 7.8, 150 mM NaCl, 5 mM CaCl2); Prom1-Strep captured on StrepTactinXT 4Flow resin, 1 hr at 4°C; co-purified mNeonGreen or mScarlet fluorescence on the beads measured by montaged epifluorescence imaging, normalised to mTagBFP2-Strep on the resin

## Prominin 1 (Prom1) W795R, human S1 isoform, C-terminally Strep-tagged (natural protein)
  co-purified mScarlet fluorescence relative to WT Prom1 (% of WT Prom1): 60
